Paper PMC2714072

Key:
[1] = molecular target: SYT/S (short isoform of SYT/SS18), monkey (Cos-1) (monkey (endogenous in Cos-1)); experiment: co-IP; endogenous proteins; post-nuclear (cytosolic) lysates of U2OS or Cos-1 cells in MLB buffer (25 mM HEPES pH 7.5, 150 mM NaCl, 1% Igepal CA-630, 10 mM MgCl2, 1 mM EDTA, 2% glycerol, 1 mM ATP); 1 µg pSYT or SYT/L-specific antibody overnight, Protein G PLUS-Agarose, 3 washes with RIPA buffer; bands stained with SYPRO Ruby, excised and identified by nano LC/MS/MS; controls: IgG and lysates of panSYT229 RNAi cells; Cos-1 lysates also pre-incubated with 100 µM GTP-γS or 1 mM GDP for 30 min at 30°C
[2] = molecular target: SYT/L (long isoform of SYT/SS18), monkey (Cos-1) (monkey (endogenous in Cos-1)); experiment: as above

With “actin, monkey (Cos-1) (from UniProt Q76N69 1-375) (natural protein)” the difference in co-immunoprecipitated level between lysates with GTP-γS and with GDP [1] was under 5% and the difference in co-immunoprecipitated level between lysates with GTP-γS and with GDP [2] was under 5%.
